Results published in US20240287172A1 (SCIRHOM, published 2024).
Positions count from the first letter of the chain named.

What was measured:
Assay in all cases: FACS, MEF-DKO cells, 3 µg/ml
hiR2-FL-D528I-T7 = target: T1, hiR2-FL-D528I-T7 (human, UniProt Q6PJF5 1-856)
T1 sequence: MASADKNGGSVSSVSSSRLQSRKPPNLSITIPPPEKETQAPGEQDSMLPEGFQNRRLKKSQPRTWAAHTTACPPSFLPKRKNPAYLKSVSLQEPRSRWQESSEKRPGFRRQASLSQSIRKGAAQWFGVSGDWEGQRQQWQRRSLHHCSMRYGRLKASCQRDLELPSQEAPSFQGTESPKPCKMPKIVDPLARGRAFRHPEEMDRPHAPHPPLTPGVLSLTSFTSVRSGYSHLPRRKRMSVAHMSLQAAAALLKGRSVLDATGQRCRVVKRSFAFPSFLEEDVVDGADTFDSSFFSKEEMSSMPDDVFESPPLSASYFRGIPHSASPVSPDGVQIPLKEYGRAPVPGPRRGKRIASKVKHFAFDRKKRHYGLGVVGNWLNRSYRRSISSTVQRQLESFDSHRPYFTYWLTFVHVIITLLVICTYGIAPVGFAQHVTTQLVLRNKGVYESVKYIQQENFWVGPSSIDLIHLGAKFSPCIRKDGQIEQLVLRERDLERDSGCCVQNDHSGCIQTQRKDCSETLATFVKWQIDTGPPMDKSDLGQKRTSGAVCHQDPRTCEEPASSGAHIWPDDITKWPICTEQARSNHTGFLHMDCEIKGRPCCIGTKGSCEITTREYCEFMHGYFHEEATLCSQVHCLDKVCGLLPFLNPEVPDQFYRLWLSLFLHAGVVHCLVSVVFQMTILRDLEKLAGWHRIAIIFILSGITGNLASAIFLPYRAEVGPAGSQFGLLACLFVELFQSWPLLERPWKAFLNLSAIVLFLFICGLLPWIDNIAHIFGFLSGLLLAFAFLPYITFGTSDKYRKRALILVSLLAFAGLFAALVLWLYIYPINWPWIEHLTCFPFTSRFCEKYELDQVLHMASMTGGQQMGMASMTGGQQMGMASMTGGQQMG

hiR2-FL-G531S-T7 = target: T2, hiR2-FL-G531S-T7 (human, UniProt Q6PJF5 1-856)
T2 sequence: T1 sequence with I528D, G531S

hiR2-FL-F523W-T7 = target: T3, hiR2-FL-F523W-T7 (human, UniProt Q6PJF5 1-856)
T3 sequence: T1 sequence with F523W, I528D

Measured: loss of binding vs wild type

B1: antibody 48 (antibody, V domains shown)
VH: QVQLQQSGTELVRPGTSVKVSCKASGYAFTNYLIEWVKQRPGQGLEWIGVINPGSGFTKYNEKFKGKATLTADKSSSTVYMHLSSLTSEDSAVYFCARGLYRAMDYWGQGTSVTVSS
VL: DIQMTQSPASQSASLGESVTITCLASQTIATWLAWYQQKPGKSPQLLIYGATTLADGVPSRFSGGGSGTKFSFKISSLQAEDFVSYYCQQLYSTPYTFGGGTKLEIK
notes: mouse IgG, kappa light chain; also called clone #48; purified antibody 48
≥ 30%: all assays above

B2: antibody 50 (antibody, V domains shown)
VH: B1 VH with T9A, T16A, T30S, V79A, H82Q
VL: B1 VL with A30G, G50A, T52A, T53S, S85N, L91I
notes: mouse IgG, kappa light chain; also called clone #50; purified antibody 50
≥ 30%: all assays above
